Measured values published in patent US20120301472A1 (DUKE UNIVERSITY, published 2012).
Residue numbers refer to the chain shown, from its start.

Experiments:
[1] = biological target: T1, native human CD22 (hCD22) (human, UniProt P20273 20-847); experiment: hybridoma screen on CD22-transfected mouse L cells
T1 construct: On Raji and Ramos Burkitt lymphoma cells (Scatchard analysis, flow cytometry) and on mouse L cells transfected with full-length CD22 cDNA (hybridoma screen)
From the text: Monoclonal antibodies (mAbs) HB22-7 (IgG2b), HB22-23 (IgG2a), HB22-33 (IgM), HB22-5 (IgG2a), HB22-13 (IgG2a), HB22-22 (IgA), and HB22-196 were produced according to the method of Engel et al., J Immunol 15:4710 (1993) and U.S. Pat. No. 5,484,892. See, also Tuscano et al, Blood 94:1382-1392 (1999). However, other methods may be used. Briefly, the HB22 mAbs were produced via hybridoma techniques using a mouse pre-B cell line 300.19, stably transfected with full length CD22 cDNA, as the immunogen. More specifically, thirty-three mAbs reactive with CD22 were generated by the fusion of NS-1 myeloma cell with spleen cells from Balb/c mice immunized three times with a mouse pre-B cell line, 300.19, stably transfected with a full-length CD22 cDNA. Hybridomas producing mAb reactive with mouse L cells transfected with CD22 cDNA, but not with untransfected cells, were cloned twice and used to generate supernatant or ascites fluid. mAb isotypes were determined using the Mouse Monoclonal Antibody Isotyping Kit (Amersham, Arlington Heights, Ill.). IgGmAb were purified using the Affi-Gel Protein A MAPS II Kit (Bio-Rad, Richmond, Calif.).

[2] = biological target: T1, native human CD22 (hCD22); experiment: Scatchard analysis, Raji against Ramos cells
Protocol: Cell lines and Scatchard Analysis. Raji and Ramos Burkitt lymphoma, cell lines were purchased from American Type Culture Collection (ATCC, Manassas, Va.). Both cell lines stained for CD22 expression by flow cytometric methods utilizing the HB22-7 mAb, as described previously (Tuscano et al., supra). The cell lines were maintained in RPMI 1640 supplemented with 10% fetal calf serum at 0.5 times. 10⁶ cells/ml. A Scatchard analysis using Raji and Ramos cells was performed as described previously (Scatchard, G., Ann. of NY Acad Sci. 51:660 (1947)). Briefly, HB22-7 was labeled with ¹²⁵ I by the chloramine T method (specific activity of […]). A competitive binding assay was performed utilizing serially diluted, unlabeled HB22-7.
Scatchard analysis was utilized to assess the binding affinity of HB22-7 and the number of CD22 receptors on Ramos and Raji cells. The cells were assayed for maximum, binding percentage (Bmax), disassociation constant (Ka) and number of antibodies bound per cell. The results shown in Table 1 are the average of two experiments.

T1 sequence (P20273 other isoform, or with tags, fused parts or gaps limits assumed): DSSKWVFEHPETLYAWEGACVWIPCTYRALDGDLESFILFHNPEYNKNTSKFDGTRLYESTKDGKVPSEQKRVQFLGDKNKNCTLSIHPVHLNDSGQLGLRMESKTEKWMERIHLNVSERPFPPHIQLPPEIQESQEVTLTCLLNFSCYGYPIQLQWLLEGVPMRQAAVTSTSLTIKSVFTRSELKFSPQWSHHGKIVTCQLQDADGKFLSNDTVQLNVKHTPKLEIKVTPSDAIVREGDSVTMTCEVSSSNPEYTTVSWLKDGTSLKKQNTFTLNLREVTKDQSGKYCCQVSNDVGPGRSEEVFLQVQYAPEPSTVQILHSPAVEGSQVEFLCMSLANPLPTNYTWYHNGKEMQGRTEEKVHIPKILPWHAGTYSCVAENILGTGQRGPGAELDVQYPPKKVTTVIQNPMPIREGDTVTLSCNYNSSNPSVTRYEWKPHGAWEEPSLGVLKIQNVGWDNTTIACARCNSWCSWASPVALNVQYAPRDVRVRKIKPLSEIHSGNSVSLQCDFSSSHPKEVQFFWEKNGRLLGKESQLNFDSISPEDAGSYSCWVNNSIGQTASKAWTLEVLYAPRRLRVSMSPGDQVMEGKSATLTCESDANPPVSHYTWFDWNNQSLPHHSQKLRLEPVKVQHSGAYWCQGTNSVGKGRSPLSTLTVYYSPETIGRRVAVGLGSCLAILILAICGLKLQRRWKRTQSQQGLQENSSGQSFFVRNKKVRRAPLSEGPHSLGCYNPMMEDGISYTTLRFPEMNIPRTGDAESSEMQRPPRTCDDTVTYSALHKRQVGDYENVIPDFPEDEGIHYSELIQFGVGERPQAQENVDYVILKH

B1: anti-CD22 monoclonal antibody HB22-5 (antibody, V domains shown)
VH: EVQLQESGPELVKPGASMKISCKASGYSFTDYTMNWVKQSHGKNLEWIGLLHPFNGGTSYNQKFKGKATLSVDKSSSTAFMELLSLTSEDSAVYFCARGTGRNYAMDYWGQGTSVTVSS
VL: SIVMTQTPKFLLVSTGDRVTITCKASQTVTNDLAWYQQKPGQSPKLLIYYASNRYTGVPDRFTGSGYGTDFTFTINTVQAEDLAVYFCQQDYSSPLTFGAGTKLELKR
B1: binds [1].

B2: anti-CD22 monoclonal antibody HB22-7 (antibody, V domains shown)
VH: EVQLQESGPGLVAPSQSLSITCTVSGFSLSDYGVNWVRQIPGKGLEWLGIIWGDGRTDYNSALKSRLNISKDNSKSQVFLKMNSLKADDTARYYCARAPGNRAMEYWGQGTSVTVSS
VL: B1 VL with T15A, V19I, I21L, T28S, L33V, N76S, S93R, L96W, A100G, L106I
notes: Labelled with 125I for the Scatchard assay; also called HB11347; anti-CD22 mAb
For B2, the “fold increase in Ka, Raji cells versus Ramos cells” value [2] was 2 fold and the “fold increase in antibodies bound per cell and Bmax, Raji cells versus Ramos cells” value [2] was roughly 2.5 fold.

B3: anti-CD22 monoclonal antibody HB22-13 (antibody, V domains shown)
VH: EVQLQESGGGLVQPGGSLRLSCATSGFTFIDYYMNWVRQPPGKALEWLGFIKNKFNGYTTEYNTSVKGRFTISRDNSQSILYLQMNTLRAEDSATYYCARGLGRSYAMDYWGQGTSVTVSS
VL: B1 VL with T15A, T20S, T28S, L33V, A34T, Y50F, N76S
B3: binds [1].

B4: anti-CD22 monoclonal antibody HB22-33 (antibody, V domains shown)
VH: EVQLQESGPGLVKPSQSLSLTCSVTGYSITSGYYWNWIRQFPGNKLEWMGYIRYDGSNNYNPSLKNRISITRDTSKNQFFLKLNSVTTEDTATYYCARGGITVAMDYWGQGTSVTVSS
VL: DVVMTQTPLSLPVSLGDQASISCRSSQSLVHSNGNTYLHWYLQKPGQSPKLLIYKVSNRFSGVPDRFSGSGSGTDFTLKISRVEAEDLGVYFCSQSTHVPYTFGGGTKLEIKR
B4: binds [1].
